± gives the uncertainty stated by the source.

This data set can be described thus: abundance fitness (aPCA) (normalised: wild type 0, dead -1); higher = more abundant; growth selection in yeast, the domain comes from the species named. Conditions: Homo sapiens.
The substance “Lipoamide acyltransferase component of branched-chain alpha-keto acid dehydrogenase complex, mitochondrial Y208M, P11182” returned an abundance fitness of 0.012 ± 0.052.
With “Lipoamide acyltransferase component of branched-chain alpha-keto acid dehydrogenase complex, mitochondrial Y208N, P11182”, the abundance fitness was -0.162 ± 0.061.
The same measure for “Lipoamide acyltransferase component of branched-chain alpha-keto acid dehydrogenase complex, mitochondrial Y208P, P11182”: -0.283 ± 0.044; for “Lipoamide acyltransferase component of branched-chain alpha-keto acid dehydrogenase complex, mitochondrial Y208S, P11182”: -0.095 ± 0.041.
With “Lipoamide acyltransferase component of branched-chain alpha-keto acid dehydrogenase complex, mitochondrial Y208T, P11182”, the abundance fitness is -0.073 ± 0.074.
With “Lipoamide acyltransferase component of branched-chain alpha-keto acid dehydrogenase complex, mitochondrial Y208V, P11182” the figure was -0.02 ± 0.039; with “Lipoamide acyltransferase component of branched-chain alpha-keto acid dehydrogenase complex, mitochondrial Y208W, P11182”, -0.186 ± 0.05; with Nanos homolog 2 D85A, P60321, 0.03 ± 0.11.
The same measure for Nanos homolog 2 D106A, P60321: -0.206 ± 0.098.
Turning to Nanos homolog 2 H74A, P60321, the abundance fitness was -0.238 ± 0.12.
Turning to Nanos homolog 2 H95Q, P60321, the abundance fitness was -0.092 ± 0.071.
The same measure for Nanos homolog 2 I92Y, P60321: -0.308 ± 0.14; for Nanos homolog 2 K67R, P60321: -0.197 ± 0.05; for Nanos homolog 2 K82R, P60321: -0.243 ± 0.069.
With Nanos homolog 2 K112R, P60321 the figure was -0.171 ± 0.096.
The same measure for Nanos homolog 2 L111K, P60321: 0.292 ± 0.074; for Nanos homolog 2 Q80C, P60321: 0.191 ± 0.11; for Nanos homolog 2 Q107R, P60321: -0.016 ± 0.12.
With Nanos homolog 2 R73E, P60321, the abundance fitness came out at 0.102 ± 0.067.
With Nanos homolog 2 S77R, P60321 the figure was -0.003 ± 0.069.
With Nanos homolog 2 V87G, P60321 the figure was -0.082 ± 0.088; with Nanos homolog 2 V89S, P60321, 0.094 ± 0.066; with Nanos homolog 2 V97I, P60321, 0.008 ± 0.12.
With Nanos homolog 2 V100L, P60321 the figure was -0.123 ± 0.077.
For Nanos homolog 2 Y76F, P60321, the abundance fitness is -0.14 ± 0.13.
With Nanos homolog 2 Y113H, P60321 the figure was 0.057 ± 0.11.
